Patent US20210373021A1

Target: SNAP-25 Reporter 1 (human) (UniProt P60880)
Assay: cell-based or functional assay

UniProt P60880, sequence (P60880 other isoform, or with tags, fused parts or gaps limits assumed): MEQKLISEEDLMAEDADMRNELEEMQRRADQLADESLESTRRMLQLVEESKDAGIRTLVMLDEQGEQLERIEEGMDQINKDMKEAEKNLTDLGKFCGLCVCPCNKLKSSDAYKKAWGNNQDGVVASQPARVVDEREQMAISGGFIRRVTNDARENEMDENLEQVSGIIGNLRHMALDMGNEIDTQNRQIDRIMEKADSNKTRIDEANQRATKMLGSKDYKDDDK

Substance “Galderma BoNT/A drug product QM-1114 (from UniProt P0DPI0 2-1296) (enzyme)” has an EC50 of SNAP-25 cleavage (Western blot), 4 hours at ambient temperature of 844 U/ml, an EC50 of SNAP-25 cleavage (Western blot), 22 hours at 37° C. of 687 U/ml and an EC50 of SNAP-25 cleavage (Western blot), 22 hours at room temperature of 204 U/ml. For the same substance, the EC50 of uncleaved product in RLU (sandwich ELISA), 22 hours at 37° C. was 112 U/ml and the EC50 of uncleaved product in RLU (sandwich ELISA), 22 hours at room temperature was 55.3 U/ml.
